# Reference: patent publication US20210063414A1, “METHODS FOR PREVENTING AND/OR TREATING BONE LOSS CONDITIONS BY MODULATING IRISIN” (Dana-Farber Cancer Institute, Inc., priority 2018, published 2021)
# Key:
# 3T3 F442A adipose cells = test: Integrin-like signaling in adipose cells, immunoblot; format: cell-based, murine; details: irisin 10 minutes
# Description: Differentiated 3T3 F442A adipose cells were incubated in serum free medium for 4 hours followed by treatment of indicated concentrations of irisin for 10 minutes. Cells were lysed to detect the indicated protein level using immunoblot analysis.
# Certain materials and methods were used to generate the results described herein. For example, the data shown in FIG. 1A resulted from MLO-Y4 (an osteocyte-like cell line) cells treated with the indicated concentration of irisin and hydrogen peroxide for 4 hours. Cells were stained with Hoechst 33342 (ThermoFisher Scientific, catalog number H3570) and Eth-D1 (ThermoFisher Scientific, catalog number E1169) and analyzed to determine the percentage of cell death using ImageJ. […] Co-precipitated irisin was analyzed by immunoblot analysis against flag tag (Sigma Aldrich, catalog number A8592). The data shown in FIGS. 5A and 5B were generated from MLO-Y4 cells treated and analyzed as in the experiments used to generate the data shown in FIG. 2D, except that pre-treatment of 100 nM RGDS (FIG. 5A) or echistatin (R & D Systems Inc., catalog number 3202/100U) (FIG. 5B) for 10 minutes was performed before irisin treatment. […] Sclerostin mRNA level was analyzed by qPCR (FIG. 7A). […] Epididymal fats were collected, RNAs were extracted from the tissues, and mRNA levels of the indicated genes were analyzed by qPCR. […]
# integrin α5/β1 = molecular target: T1, integrin α5/β1 (Homo sapiens, UniProt P05556+P08648); test: FAK phosphorylation in HEK293T cells with forced expression of integrin α5/β1; format: cell-based
# T1 construct: expressed in transfected cells; host or cells: HEK293T
# T1 sequence (P08648 42-894 limits assumed): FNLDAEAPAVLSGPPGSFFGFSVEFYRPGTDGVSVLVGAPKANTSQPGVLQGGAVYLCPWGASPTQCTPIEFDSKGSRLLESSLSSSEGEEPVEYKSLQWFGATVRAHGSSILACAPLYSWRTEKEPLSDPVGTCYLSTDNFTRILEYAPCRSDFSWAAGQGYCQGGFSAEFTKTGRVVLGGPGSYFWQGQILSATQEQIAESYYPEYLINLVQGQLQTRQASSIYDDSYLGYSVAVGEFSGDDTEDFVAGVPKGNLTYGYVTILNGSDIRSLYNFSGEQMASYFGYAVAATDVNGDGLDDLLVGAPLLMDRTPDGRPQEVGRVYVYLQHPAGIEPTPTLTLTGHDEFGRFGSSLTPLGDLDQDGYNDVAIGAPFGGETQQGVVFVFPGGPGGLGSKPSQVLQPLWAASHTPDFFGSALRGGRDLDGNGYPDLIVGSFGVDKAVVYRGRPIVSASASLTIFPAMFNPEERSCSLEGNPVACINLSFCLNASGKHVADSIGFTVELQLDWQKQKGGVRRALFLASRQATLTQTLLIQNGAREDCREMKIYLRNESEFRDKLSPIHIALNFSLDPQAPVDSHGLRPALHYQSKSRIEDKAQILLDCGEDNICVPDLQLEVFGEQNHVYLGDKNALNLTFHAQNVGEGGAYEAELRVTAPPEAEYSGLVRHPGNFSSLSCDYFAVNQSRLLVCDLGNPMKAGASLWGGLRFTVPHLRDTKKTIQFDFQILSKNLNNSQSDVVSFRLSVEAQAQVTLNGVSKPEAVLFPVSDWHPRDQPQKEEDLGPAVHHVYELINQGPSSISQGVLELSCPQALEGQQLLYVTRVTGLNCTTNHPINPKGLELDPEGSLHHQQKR
# T1 sequence (P08648 895-1049 partner limits assumed): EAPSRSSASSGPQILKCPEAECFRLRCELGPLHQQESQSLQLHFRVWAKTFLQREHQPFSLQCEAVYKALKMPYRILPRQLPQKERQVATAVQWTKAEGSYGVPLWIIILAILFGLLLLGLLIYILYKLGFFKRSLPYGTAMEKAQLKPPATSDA
# T1 sequence (P05556 21-798): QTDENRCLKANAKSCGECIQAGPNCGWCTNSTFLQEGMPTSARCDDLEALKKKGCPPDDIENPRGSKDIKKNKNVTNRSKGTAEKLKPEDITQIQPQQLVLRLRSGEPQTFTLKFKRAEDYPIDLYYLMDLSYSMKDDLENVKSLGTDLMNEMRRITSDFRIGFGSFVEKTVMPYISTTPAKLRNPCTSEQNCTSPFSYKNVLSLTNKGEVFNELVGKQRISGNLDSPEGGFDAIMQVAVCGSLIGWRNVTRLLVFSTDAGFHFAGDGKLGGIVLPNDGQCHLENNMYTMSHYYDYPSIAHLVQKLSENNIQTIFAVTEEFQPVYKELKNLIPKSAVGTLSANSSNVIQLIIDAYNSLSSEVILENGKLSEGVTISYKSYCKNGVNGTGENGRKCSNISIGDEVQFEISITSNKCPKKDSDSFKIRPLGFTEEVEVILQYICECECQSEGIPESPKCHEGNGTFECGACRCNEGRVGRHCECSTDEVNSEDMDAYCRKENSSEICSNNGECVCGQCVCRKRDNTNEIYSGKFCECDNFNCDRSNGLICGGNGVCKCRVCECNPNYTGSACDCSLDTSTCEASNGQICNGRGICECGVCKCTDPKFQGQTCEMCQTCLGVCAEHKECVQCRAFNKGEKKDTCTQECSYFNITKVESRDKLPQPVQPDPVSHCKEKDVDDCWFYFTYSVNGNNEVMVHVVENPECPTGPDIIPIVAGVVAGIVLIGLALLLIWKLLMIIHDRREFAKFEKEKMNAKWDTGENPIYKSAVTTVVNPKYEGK
# Description: (§1) 100 nM irisin was incubated with 5 nM indicated his-tag integrins followed by immunoprecipitation using Ni-NTA agaroses. Precipitated integrins and co-precipitated irisin were analyzed by immunoblot analysis. […] HEK293T cells were seeded and incubated until 50% cell density. The cells were transfected with 0.1 μg plasmids of indicated integrins. After 48 hours, the cells were re-split to indicated dose of vitronectin-coated plates. Cells were incubated with culture medium for 3 hours. Cells were lysed to detect the indicated protein level using immunoblot analysis. FIG. 15C and FIG. 15D show the immunoblot data. Cells were treated and analyzed as FIG. 14B except using plasmids encoding integrin α5/β1 or integrin α11/β1 (FIG. 15C) integrin αV/β1(FIG. 15D).
# (§2) HEK293T cells were set up for experiments at 1×10^5 cells per well in 6 well plate. On day 2, cells were transiently transfected with the indicated plasmids with FuGENE® 6 reagent (Roche Applied Science) according to the manufacturer's protocol. […]
# (§3) Cells were harvested in RIPA buffer containing protease-inhibitor cocktail and phosphataseinhibitor cocktail. […] Protein levels were analyzed via western blot using indicated antibody. […] Protein levels were analyzed using western blot against indicated antibody.
# integrin αV/β1 = molecular target: T2, integrin αV/β1 (Homo sapiens, UniProt P05556+P06756); test: FAK phosphorylation in HEK293T cells with forced expression of integrin αV/β1; format: cell-based
# T2 construct: expressed in transfected cells; host or cells: HEK293T
# T2 sequence (P06756 31-889 limits assumed): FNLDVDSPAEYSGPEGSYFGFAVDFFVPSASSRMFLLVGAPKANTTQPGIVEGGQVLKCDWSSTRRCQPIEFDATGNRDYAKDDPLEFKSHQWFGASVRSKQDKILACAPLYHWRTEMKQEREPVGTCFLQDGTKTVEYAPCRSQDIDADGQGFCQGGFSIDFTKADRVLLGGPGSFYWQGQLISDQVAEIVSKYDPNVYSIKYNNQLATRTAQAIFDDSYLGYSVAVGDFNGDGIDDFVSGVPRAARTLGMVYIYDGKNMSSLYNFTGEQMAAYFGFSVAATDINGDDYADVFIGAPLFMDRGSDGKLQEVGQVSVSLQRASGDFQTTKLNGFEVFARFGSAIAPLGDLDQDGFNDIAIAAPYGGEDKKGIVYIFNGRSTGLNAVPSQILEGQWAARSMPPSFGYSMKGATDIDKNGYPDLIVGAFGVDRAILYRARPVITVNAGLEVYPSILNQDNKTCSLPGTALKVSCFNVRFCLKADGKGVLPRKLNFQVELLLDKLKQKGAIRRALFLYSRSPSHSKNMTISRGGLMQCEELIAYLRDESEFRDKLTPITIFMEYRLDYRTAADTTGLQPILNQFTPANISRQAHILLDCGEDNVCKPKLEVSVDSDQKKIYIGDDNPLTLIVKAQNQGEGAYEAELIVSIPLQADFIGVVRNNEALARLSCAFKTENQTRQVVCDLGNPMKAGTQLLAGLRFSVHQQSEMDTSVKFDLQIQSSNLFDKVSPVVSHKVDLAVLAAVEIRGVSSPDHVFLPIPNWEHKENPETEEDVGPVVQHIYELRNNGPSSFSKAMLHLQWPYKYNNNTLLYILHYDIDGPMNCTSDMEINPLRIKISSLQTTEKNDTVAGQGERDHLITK
# T2 sequence (P06756 891-1048 partner limits assumed): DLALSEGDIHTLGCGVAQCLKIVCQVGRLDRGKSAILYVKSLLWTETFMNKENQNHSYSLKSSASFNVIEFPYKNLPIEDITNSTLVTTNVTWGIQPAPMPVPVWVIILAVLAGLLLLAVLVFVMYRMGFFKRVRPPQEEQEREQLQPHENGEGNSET
# T2 sequence (P05556 21-798): as the sequence (P05556 21-798) above
# Description: as §1, §2, §3
molecule,measurement,setting,value
"irisin: secreted cleaved form of FNDC5; recombinant human/mouse irisin with C-terminal his tag produced in HEK293 cells (protein, left off: small tags and cut ends, secreted cleaved form of FNDC5; recombinant human/mouse irisin with C-terminal his tag produced in HEK293 cells) DSPSAPVNVTVRHLKANSAVVSWDVLEDEVVIGFAISQQKKDVRMLRFIQEVNTTTRSCALWDLEEDTEYIVHVQAISIQGQSPASEPVLFKTPREAEKMASKNKDEVTMKE",irisin dose at which phosphorylation of FAK and CREB were observed,3T3 F442A adipose cells,30 pM
same,phosphorylation of FAK upon irisin treatment,integrin α5/β1,little phosphorylation of FAK above background
same,phosphorylation of FAK upon irisin treatment,integrin αV/β1,increased FAK phosphorylation
